How the values were obtained:
[1] = Western blot of UBAP2L, ccRCC cells; conditions: glycan lost; control: shCtrl / untreated
[2] = CHX-chase, Western blot, ccRCC cells; conditions: glycan lost; control: WT / shCtrl / untreated
[3] = UBAP2L/G3BP1 immunostaining, granules per cell; conditions: glycan lost; control: sunitinib without OSMI-1
[4] = CCK-8 dose response, 786-O and Caki-1; conditions: glycan lost; control: UBAP2L-WT overexpression
[5] = UBAP2L/G3BP1 immunostaining after sunitinib; conditions: glycan lost; control: UBAP2L-WT overexpression

B1: UBAP2L: OSMI-1 (protein)
parent chain: MMTSVGTNRARGNWEQPQNQNQTQHKQRPQATAEQIRLAQMISDHNDADFEEKVKQLIDITGKNQDECVIALHDCNGDVNRAINVLLEGNPDTHSWEMVGKKKGVSGQKDGGQTESNEEGKENRDRDRDYSRRRGGPPRRGRGASRGREFRGQENGLDGTKSGGPSGRGTERGRRGRGRGRGGSGRRGGRFSAQGMGTFNPADYAEPANTDDNYGNSSGNTWNNTGHFEPDDGTSAWRTATEEWGTEDWNEDLSETKIFTASNVSSVPLPAENVTITAGQRIDLAVLLGKTPSTMENDSSNLDPSQAPSLAQPLVFSNSKQTAISQPASGNTFSHHSMVSMLGKGFGDVGEAKGGSTTGSQFLEQFKTAQALAQLAAQHSQSGSTTTSSWDMGSTTQSPSLVQYDLKNPSDSAVHSPFTKRQAFTPSSTMMEVFLQEKSPAVATSTAAPPPPSSPLPSKSTSAPQMSPGSSDNQSSSPQPAQQKLKQQKKKASLTSKIPALAVEMPGSADISGLNLQFGALQFGSEPVLSDYESTPTTSASSSQAPSSLYTSTASESSSTISSNQSQESGYQSGPIQSTTYTSQNNAQGPLYEQRSTQTRRYPSSISSSPQKDLTQAKNGFSSVQATQLQTTQSVEGATGSAVKSDSPSTSSIPPLNETVSAASLLTTTNQHSSSLGGLSHSEEIPNTTTTQHSSTLSTQQNTLSSSTSSGRTSTSTLLHTSVESEANLHSSSSTFSTTSSTVSAPPPVVSVSSSLNSGSSLGLSLGSNSTVTASTRSSVATTSGKAPPNLPPGVPPLLPNPYIMAPGLLHAYPPQVYGYDDLQMLQTRFPLDYYSIPFPTPTTPLTGRDGSLASNPYSGDLTKFGRGDASSPAPATTLAQPQQNQTQTHHTTQQTFLNPALPPGYSYTSLPYYTGVPGLPSTFQYGPAVFPVAPTSSKQHGVNVSVNASATPFQQPSGYGSHGYNTGVSVTSSNTGVPDISGSVYSKTQQSFEKQGFHSGTPAASFNLPSALGSGGPINPATAAAYPPAPFMHILTPHQQPHSQILHHHLQQDGQTGSGQRSQTSSIPQKPQTNKSAYNSYSWGAN
decreases: expression_or_secretion [1] | degradation_or_half_life [2] | other: stress granule formation [3]

B2: UBAP2L: S305A (protein)
parent chain: B1 parent chain
decreases: degradation_or_half_life [2] | other: sunitinib resistance of cells, IC50 [4] | other: stress granule formation [5]

— paper PMC12487280
